Laboratory results reported in US20130274191A1 (THOMAS JEFFERSON UNIVERSITY, published 2013).
Non-standard residues stand in square brackets, D forms with d. No end group written: not given here. Sar = CNCC(=O)O

Biological target: T1, human Angiotensin II type 1 receptor (AT1R) (human, UniProt P30556 1-359, limits assumed)
T1 sequence (looked up): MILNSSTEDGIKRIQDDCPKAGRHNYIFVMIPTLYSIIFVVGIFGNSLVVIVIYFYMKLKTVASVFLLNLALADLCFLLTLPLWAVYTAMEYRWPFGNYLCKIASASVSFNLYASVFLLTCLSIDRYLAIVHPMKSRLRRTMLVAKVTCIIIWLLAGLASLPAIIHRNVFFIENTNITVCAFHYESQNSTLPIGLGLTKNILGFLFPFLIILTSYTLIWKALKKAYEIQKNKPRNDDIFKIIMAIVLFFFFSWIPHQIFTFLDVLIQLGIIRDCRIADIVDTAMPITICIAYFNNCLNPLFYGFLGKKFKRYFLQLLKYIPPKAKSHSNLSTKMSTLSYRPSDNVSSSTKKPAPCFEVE
Test: cell-based or functional assay

[Sar]RVY[Cys(Et)]HPL [CORET: Sar^1,Cys(Et)^5,Leu^8-AngII]
βarr activation by the AT1R, potency relative to AngII: 10 times less potent than AngII
